Experimental data: publication PMC6128652, “Structure of the Cladosporium fulvum Avr4 effector in complex with (GlcNAc)6 reveals the ligand-binding mechanism and uncouples its intrinsic function from recognition by the Cf-4 resistance protein” (PLoS Pathogens, 2018)
Residue numbers refer to the chain shown, from its start. Entries after “also recorded” stand apart in the source; their conditions may differ.

B1: D102A (protein)
chain: KAPKTQPYNPCKPQEVIDTKCMGPKDCLYPNPDSCTTYIQCVPLDEVGNAKPVVKPCPKGLQWNDNVGKKWCAYPNLSTCPVKTPQ
modifications: left off: 6x His (two), N-terminal, state not stated
B2: Y103F (protein)
chain: B1 chain with A73D, Y74F
modifications: left off: 6x His (two), N-terminal, state not stated
B3: N93A (protein)
chain: B1 chain with N64A, A73D
modifications: left off: 6x His (two), N-terminal, state not stated
B4: M51A (protein)
chain: B1 chain with M22A, A73D
modifications: left off: 6x His (two), N-terminal, state not stated
B5: P53A (protein)
chain: B1 chain with P24A, A73D
modifications: left off: 6x His (two), N-terminal, state not stated
B6: Y67F (protein)
chain: B1 chain with Y38F, A73D
modifications: left off: 6x His (two), N-terminal, state not stated
B7: N95A (protein)
chain: B1 chain with N66A, A73D
modifications: left off: 6x His (two), N-terminal, state not stated
B8: D94A (protein)
chain: B1 chain with D65A, A73D
modifications: left off: 6x His (two), N-terminal, state not stated
B9: P87A (protein)
chain: B1 chain with P58A, A73D
modifications: left off: 6x His (two), N-terminal, state not stated

What was measured:
[1] = Isothermal titration calorimetry (ITC) of CfAvr4 variants with chitin hexasaccharide; type: binding; conditions: ITC; for effect of the mutation on binding to (GlcNAc)6: compared with WT-CfAvr4; for increase in the Kd relative to WT-CfAvr4: (GlcNAc)6
Method: A stock solution of the monomer of N-acetylglucosamine was prepared by dissolving the dry powder in a buffer containing 10 mM Bis-Tris, pH 6.5, 100 mM NaCl to a concentration of 0.100 g/L using analytic techniques. Standard solution of 0, 0.010, 0.025, 0.050, 0.075 g/L were prepared by serial dilutions. Using glass test tubes and pipets, 100 μL of each standard was mixed with 300μL of concentrated sulfuric acid and vortexed for 10 sec to mix. Solutions were incubated at RT for 10 min and then placed on ice to stop the reaction. […] Analytically prepared solution of the di- and tri-saccharide scaled linearly to the calibration curve. To determine the concentration of the chitin hexasaccharide solutions used in ITC, the solutions were diluted into the dynamic range of the calibration curve (S12 Fig) and subjected to the above procedure.
All ITC experiments were performed on a TA Instruments low volume NanoITC with a 186uL reaction cell and a reference cell filled with degassed Milli-Q grade water. Reactions were run in a buffer containing 10mM Bis-Tris, pH 6.5, 100 mM NaCl. The reservoir solution was filled with protein solution and continuously stirred while Chitin hexasaccharide solutions titrated in 2.5μL aliquots for 19 injections, with an initial 1μL injection, for a total injection volume of 48.5μL. The carbohydrate solutions were made by dissolving the dry powder in buffer to a concentration of 20mM (confirmed using methods described above) and then diluted to the working concentration using the final buffer exchange flow through to match the buffers as closely as possible. The integrated heats, after correction for the heat of dilution were analyzed using the NanoAnalyze software from […]. An individual binding site model was used to fit the binding isotherm. All experiments were replicated a minimum of three times.

[2] = test system: subtilisin; test: Subtilisin treatment (resistance against proteolytic degradation); type: in vitro ADME; parameters: key to Stability (Subtilisin assay): S: stable; PU: partially unstable; conditions: for Stability (Subtilisin assay): 500 ng/μL subtilisin, 30 min, room temperature; for susceptibility to proteolytic degradation by subtilisin: 500 ng/μl subtilisin, band of mature CfAvr4 on SDS-PAGE
Method: The WT-CfAvr4 and selected mutants thereof were exposed to the non-specific protease subtilisin in order to determine their resistance against proteolytic degradation. Treatments with subtilisin were made as previously described with minor modifications. Briefly, 40 μM of the E. coli-produced CfAvr4 and the selected CfAvr4 mutants were mixed with 10 mM of calcium chloride and 500 ng/μL of subtilisin (Sigma-Aldrich) in a total volume of 15 μL. Samples were incubated for 30 min at room temperature, after which period they were denatured by mixing with 10 mM PMSF and SDS-PAGE loading buffer, and heating at 98°C for 10 min. Digestion products were visualized on an SDS-PAGE after staining with Coomassie blue.

[3] = test system: Cf-4 immune receptor; test: Pure protein infiltrations into tomato leaves of cv Purdue 135 (+ Cf-4), hypersensitive response; type: in vivo; conditions: 5 dpi
Description: Tomato seeds were obtained from the Tomato Genetic Resource Center (TGRC) at UC Davis. WT-CfAvr4 and mutants thereof with single point mutations at selected amino acids were produced and purified from E. coli Rosetta-gami B cells as description above. […]

[4] = test system: germlings of Trichoderma viride; test: In vitro protection assay of T. viride germlings against chitinases; type: cell-based; conditions: 5 μM protein with chitinases and β-1,3-glucanases, 6–8 h
Method: The ability of the WT-CfAvr4 and of ChBD mutants to protect against chitinases was evaluated in in vitro protection assays conducted as described before. Briefly, spores of T. viride (3∙10^3) were pre-germinated overnight at room temperature in 100 μl of half-strength PDB medium in 96 well plates. The following day, 5 μM of WT-CfAvr4 or ChBD mutants were mixed with 7.5 units of Zymolyase (Zymo Research cat. no. E1004) and 0.2 units of bacterial chitinases (Sigma-Aldrich cat. no. C6137) and the mixture was added to the microtitre plate wells containing the pre-germinated spores in a final volume of 150 μl. Plates were incubated at 25°C for 6–8 h before evaluating under the microscope fungal growth and the ability of the proteins to provide protection against chitinases. Zymolase has β-1,3 glucanase and β-1,3-glucan laminaripentaohydrolase activity and is added to the mixture in order to remove the surface glucans from the fungal cell wall and thus expose the underlying chitin layer.

[5] = test system: Cf-4; test: Agrobacterium tumefaciens transient transformation assay (ATTA): co-expression with Cf-4 in Nicotiana benthamiana leaves; type: in vivo; conditions: N. benthamiana, three cell density ratios 0.5:1, 1:1, 2:1
Method: The Agrobacterium tumefaciens transient transformation assay (ATTA) was used for the transient co-expression into leaves of Nicotiana benthamiana of Cf-4 with the WT-CfAvr4 and the mutants thereof tested in this study. Briefly, N. benthamiana plants were grown in a growth chamber with 16 h of artificial light and 70% humidity, at 25°C for 4 weeks. The true mature form of the WT-CfAvr4 (i.e. between Lys30-Gln115) and of the mutants thereof were singly cloned into the binary expression vector pICH47742 downstream of the PR1A signal sequence of Nicotiana tabacum for targeted secretion into the apoplast, and under the control of CaMV 35S promoter and NOS terminator. The tomato Cf-4 was cloned into pMOG800 as descripted before. Binary vector plasmids were transformed into A. tumefaciens strain GV3101 by electroporation. For the ATTA assay, agrobacteria transformed with pMOG800:Cf-4 was grown in 10mL LB-mannitol medium (LB medium with 10 g/L mannitol) amended with 50 μg/mL kanamycin and 25 μg/mL rifampicin, whereas agrobacteria transformed with pICH47742:WT-CfAvr4 or pICH4774:CfAvr4-mutants were grown in LB-mannitol amended with 100 μg/mL carbenicillin and 25 μg/mL rifampicin. All cultures were incubated at 28°C for 2 days, after which period they were pelleted at 2800g for 15 min, re-suspended in MMAi medium (5 g/L Murashige and Skoog basal salts, 20 g/L sucrose, 10 mM MES, and […]) at an optical cell density (A600) of 2.0, and further incubated for 2–4 h at room temperature. Agroinfiltrations were performed by mixing agrobacteria containing pMOG800:Cf-4 with agrobacteria containing pICH47742_WT-CfAvr4 or pICH47742:CfAvr4-mutants at three different ratios of optical cell densities, i.e. A6000.5:A6001.0, A6000.5:A6000.5, and A6000.5:A6000.25 of. The mixture of agrobacteria was infiltrated into the leaves of N. benthamiana plants using a 1 mL syringe and the induction of an HR in the infiltrated leaf sectors was evaluated at 5 days post-infiltrations. Control infiltrations were made using only the pMOG800:Cf-4 transformed agrobacteria and the agrobacteria containing pICH47742:CfAvr4 or the mutants thereof without mixing the two cultures, at cell densities of A6000.25, A6000.5, and A6001.0.

Molecule | effect of the mutation on binding to (GlcNAc)6 [1] | Stability (Subtilisin assay) [2] | susceptibility to proteolytic degradation by subtilisin [2] | Cf-4-mediated HR after protein infiltration ([3]; 5 μg/ml) | Cf-4-mediated HR after protein infiltration ([3]; 10 μg/ml) | Cf-4-mediated HR after protein infiltration ([3]; both 5 μg/ml and 10 μg/ml) | protection of fungal hyphae against chitinases, fungal growth [4] | HR on transient co-expression with Cf-4 [5] | increase in the Kd relative to WT-CfAvr4 [1]
B1 | abolished all detectable binding | PU | vulnerable to proteolytic degradation; also recorded: decreased intensity of this band | weak HR response | elicited an HR | only partially trigger an HR | essentially failed to protect the fungal hyphae against chitinases; also recorded: fail to protect the fungal hyphae | strong and similar in intensity HR | –
B2 | did not affect the Kd substantially | – | – | – | – | strong and equal in intensity HR; also recorded: strong and equally in intensity necrosis | – | strong and similar in intensity HR | –
B3 | – | PU | more susceptible to degradation; also recorded: almost complete disappearance of the band | – | – | failed to elicit an HR; also recorded: do not; also recorded: did not elicit an HR | – | strong and similar in intensity HR | six
B4 | did not affect the Kd substantially | – | – | – | – | strong and equal in intensity HR; also recorded: strong and equally in intensity necrosis | – | strong and similar in intensity HR | –
B5 | did not affect the Kd substantially | – | – | – | – | strong and equal in intensity HR; also recorded: strong and equally in intensity necrosis | – | strong and similar in intensity HR | –
B6 | did not affect the Kd substantially | – | – | – | – | strong and equal in intensity HR; also recorded: strong and equally in intensity necrosis | – | strong and similar in intensity HR | –
B7 | – | – | – | – | – | strong and equal in intensity HR; also recorded: strong and equally in intensity necrosis | – | strong and similar in intensity HR | three
B8 | – | PU | more susceptible to degradation; also recorded: almost complete disappearance of the band | – | – | failed to elicit an HR; also recorded: do not; also recorded: did not elicit an HR | – | strong and similar in intensity HR | five
B9 | did not affect the Kd substantially; also recorded: does not have an effect on the binding thermodynamics | – | – | – | – | strong and equal in intensity HR; also recorded: strong and equally in intensity necrosis | – | strong and similar in intensity HR | –
